According to US20140087995A1 (published 2014):
One block for each binder: values may come before it. Numbered stars: 1 amine (or outer) side, 2 acyl side, 3 side chain; on linkers, the order of the positions; unused ones are H or OH. Bridge positions count the residues as written; N and C are the ends. Side chains are listed from the residue outwards. Ends that are not written are not given here. * marks the point of attachment. C20 diacid = O=C(O)CCCCCCCCCCCCCCCCCCC(=O)*; γGlu = O=C(O)[C@H](CCC(=O)[*:2])N[*:1]; AEEA = NCCOCCOCC(=O)O

Assays:
[1] = target: T1, human amylin receptor (amylin 3(a) receptor: human calcitonin receptor with RAMP-3) (human, UniProt P30988 25-474; O60896 24-148); experiment: SPA competition with 125I-rat amylin on membranes of BHK cells with human calcitonin receptor and RAMP-3 (Assay V)
T1 construct: whole, on cells; Assay used cell membranes of the Amylin 3(a)/CRE-luc BHK cells, not intact cells; also called hAmylin-R; hAmylinR
T1 sequence (looked up) 1: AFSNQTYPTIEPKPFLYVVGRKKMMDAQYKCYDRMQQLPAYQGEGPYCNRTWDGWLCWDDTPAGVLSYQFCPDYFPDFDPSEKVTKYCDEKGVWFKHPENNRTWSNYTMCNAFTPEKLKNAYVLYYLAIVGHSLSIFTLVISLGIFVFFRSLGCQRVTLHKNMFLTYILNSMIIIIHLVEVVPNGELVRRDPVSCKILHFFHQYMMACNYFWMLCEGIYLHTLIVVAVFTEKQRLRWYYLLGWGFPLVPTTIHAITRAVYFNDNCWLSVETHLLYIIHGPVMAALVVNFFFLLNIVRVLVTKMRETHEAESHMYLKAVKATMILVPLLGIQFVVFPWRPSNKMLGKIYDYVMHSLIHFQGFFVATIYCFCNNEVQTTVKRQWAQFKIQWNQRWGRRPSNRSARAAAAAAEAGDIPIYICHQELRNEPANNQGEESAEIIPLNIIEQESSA
T1 sequence (looked up) 2: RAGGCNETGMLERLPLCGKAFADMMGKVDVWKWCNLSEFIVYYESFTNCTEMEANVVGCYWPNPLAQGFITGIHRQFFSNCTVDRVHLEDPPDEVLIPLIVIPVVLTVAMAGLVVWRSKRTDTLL
Procedure: The binding assay was performed using scintillation proximity assay (SPA) beads (RPNQ0001) from PerkinElmer and cell membranes from the Amylin 3(a)/CRE-luc cells (as described in Assay (II)) were used. Membranes were prepared in the following way; the cells were rinsed with PBS and incubated with Versene for approximately 5 min before harvesting. The cells were flushed with PBS and the cell-suspension was centrifuged for 5 min at 1000 rpm. Cells were homogenized (ultrathurrax) in a buffer containing 20 mM Na-HEPES and 10 mM EDTA (pH 7.4) and centrifuged at 20.000 rpm for 15 min. The resulting pellet was resuspended, homogenized and centrifuged (20.000 rpm, 15 min) in a buffer containing 20 mM Na-HEPES and 0.1 mM EDTA (pH 7.4, buffer 2). The resulting pellet was resuspended in buffer 2 and protein concentration was measured (BCA protein Assay, Pierce). The homogenate was kept cold during the whole procedure. The membranes were kept at −80° C. until use. The assay was performed in a 384 well Optiplate (PerkinElmer) in a total volume of 40 ul. Membranes were mixed with SPA beads. Final concentration of membranes 35 ng/μL final and SPA beads was 0.05 mg/well. Test-compounds were dissolved in DMSO and further diluted in assay buffer (50 mM Hepes, pH 7.4, 1 mM CaCl2, 5 mM MgCl₂, 0.1% OA and 0.02% Tween20). […] The final mixture was incubated with shaking at 400 rpm for 120 min at 25° C. prior to centrifugation (1500 rpm, 10 min). Samples were analyzed on TopCounter™ (Packard). The IC₅₀ was calculated using (one site binding competition analysis) GraphPad Prism5 as a measure of receptor affinity.

[2] = target: T2, human calcitonin receptor (human, UniProt P30988 25-474); experiment: SPA competition with 125I-calcitonin on membranes of BHK cells with human calcitonin receptor (Assay VII)
T2 construct: whole, on cells; Assay used cell membranes, not intact cells; also called hCTR; hCT
T2 sequence (looked up): T1 sequence (looked up) 1
Procedure: Membranes were prepared in the following way; the cells were rinsed with PBS and incubated with Versene for approximately 5 min before harvesting. The cells were flushed with PBS and the cell-suspension was centrifuged for 5 min at 1000 rpm. Cells were homogenized (Ultrathurrax) in a buffer containing 20 mM Na-HEPES and 10 mM EDTA (pH 7.4) and centrifuged at 20.000 rpm for 15 min. The resulting pellet was resuspended, homogenized and centrifuged (20.000 rpm, 15 min) in a buffer containing 20 mM Na-HEPES and 0.1 mM EDTA (pH 7.4, buffer 2). The resulting pellet was resuspended in buffer 2 and protein concentration was measured (BCA protein Assay, Pierce). The homogenate was kept cold during the whole procedure. The membranes were kept at −80° C. until use. Assay was performed in a 384 well Optiplate (PerkinElmer) in a total volume of 40 ul. Membranes were mixed with SPA beads. Final concentration of membranes 35 ng/μL final and Final concentration of SPA beads was 0.05 mg/well. Test-compounds were dissolved in DMSO and further diluted in assay buffer (50 mM Hepes, pH 7.4, 1 mM CaCl2, 5 mM MgCl₂, 0.1% OA and 0.02% Tween20). […] The final mixture was incubated for 120 min with shaking at 400 rpm at 25° C. prior to centrifugation (1500 rpm, 10 min). Samples were analyzed on TopCounter™ (Packard). The […] was calculated using (one site binding competition analysis) GraphPad Prism5 as a measure of receptor affinity.

[3] = target: T2, human calcitonin receptor; experiment: ratio IC50 hCTR / IC50 hAmylin-R (reference: human amylin receptor), SPA competition assays
Procedure: The resulting pellet was resuspended, homogenized and centrifuged (20.000 rpm, 15 min) in a buffer containing 20 mM Na-HEPES and 0.1 mM EDTA (pH 7.4, buffer 2). The resulting pellet was resuspended in buffer 2 and protein concentration was measured (BCA protein Assay, Pierce). The homogenate was kept cold during the whole procedure. The membranes were kept at −80° C. until use. The assay was performed in a 384 well Optiplate (PerkinElmer) in a total volume of 40 ul. Membranes were mixed with SPA beads. Final concentration of membranes 35 ng/μL final and SPA beads was 0.05 mg/well. Test-compounds were dissolved in DMSO and further diluted in assay buffer (50 mM Hepes, pH 7.4, 1 mM CaCl2, 5 mM MgCl₂, 0.1% OA and 0.02% Tween20). […] The final mixture was incubated with shaking at 400 rpm for 120 min at 25° C. prior to centrifugation (1500 rpm, 10 min). Samples were analyzed on TopCounter™ (Packard). The IC₅₀ was calculated using (one site binding competition analysis) GraphPad Prism5 as a measure of receptor affinity.
Membranes were prepared in the following way; the cells were rinsed with PBS and incubated with Versene for approximately 5 min before harvesting. The cells were flushed with PBS and the cell-suspension was centrifuged for 5 min at 1000 rpm. Cells were homogenized (Ultrathurrax) in a buffer containing 20 mM Na-HEPES and 10 mM EDTA (pH 7.4) and centrifuged at 20.000 rpm for 15 min. The resulting pellet was resuspended, homogenized and centrifuged (20.000 rpm, 15 min) in a buffer containing 20 mM Na-HEPES and 0.1 mM EDTA (pH 7.4, buffer 2). The resulting pellet was resuspended in buffer 2 and protein concentration was measured (BCA protein Assay, Pierce). The homogenate was kept cold during the whole procedure. The membranes were kept at −80° C. until use. Assay was performed in a 384 well Optiplate (PerkinElmer) in a total volume of 40 ul. Membranes were mixed with SPA beads.

IC50 [1]: 0.967 nM | IC50 [2]: 61.3 nM | Ratio hCT/hAmylin binding [3]: 63.4
B1: N^ε1-[2-[2-[2-[[2-[2-[2-[[(4S)-4-carboxy-4-(19-carboxynonadecanoylamino)butanoyl]amino]ethoxy]ethoxy]acetyl]amino]ethoxy]ethoxy]acetyl]-[Arg17,Pro21,Pro27,Arg34 … (peptide)
peptide: K([AEEA-AEEA-γGlu-C20 diacid])CNTATCATQRLANFLRHSSPNFGAIPSSTNVGRNTY-NH2
modifications: disulfide 2-7; N-terminus assumed
SMILES: CC[C@H](C)[C@H](NC(=O)[C@H](C)NC(=O)CNC(=O)[C@H](Cc1ccccc1)NC(=O)[C@H](CC(N)=O)NC(=O)[C@@H]1CCCN1C(=O)[C@H](CO)NC(=O)[C@H](CO)NC(=O)[C@H](Cc1c[nH]cn1)NC(=O)[C@H](CCCNC(=N)N)NC(=O)[C@H](CC(C)C)NC(=O)[C@H](Cc1ccccc1)NC(=O)[C@H](CC(N)=O)NC(=O)[C@H](C)NC(=O)[C@H](CC(C)C)NC(=O)[C@H](CCCNC(=N)N)NC(=O)[C@H](CCC(N)=O)NC(=O)[C@@H](NC(=O)[C@H](C)NC(=O)[C@@H]1CSSC[C@H](NC(=O)[C@@H](N)CCCCNC(=O)COCCOCCNC(=O)COCCOCCNC(=O)CC[C@H](NC(=O)CCCCCCCCCCCCCCCCCCC(=O)O)C(=O)O)C(=O)N[C@@H](CC(N)=O)C(=O)N[C@@H]([C@@H](C)O)C(=O)N[C@@H](C)C(=O)N[C@@H]([C@@H](C)O)C(=O)N1)[C@@H](C)O)C(=O)N1CCC[C@H]1C(=O)N[C@@H](CO)C(=O)N[C@@H](CO)C(=O)N[C@H](C(=O)N[C@@H](CC(N)=O)C(=O)N[C@H](C(=O)NCC(=O)N[C@@H](CCCNC(=N)N)C(=O)N[C@@H](CC(N)=O)C(=O)N[C@H](C(=O)N[C@@H](Cc1ccc(O)cc1)C(N)=O)[C@@H](C)O)C(C)C)[C@@H](C)O
notes: also called compound 95

IC50 [1]: 0.568 nM | IC50 [2]: 58.9 nM | Ratio hCT/hAmylin binding [3]: 104
B2: N^ε1-[2-[2-[2-[[2-[2-[2-[[(4S)-4-carboxy-4-(19-carboxynonadecanoylamino)butanoyl]amino]ethoxy]ethoxy]acetyl]amino]ethoxy]ethoxy]acetyl]-[Arg17,Pro21,Pro27,His34 … (peptide)
peptide: K([AEEA-AEEA-γGlu-C20 diacid])CNTATCATQRLANFLRHSSPNFGAIPSSTNVGHNTY-NH2
modifications: disulfide 2-7; N-terminus assumed
SMILES: CC[C@H](C)[C@H](NC(=O)[C@H](C)NC(=O)CNC(=O)[C@H](Cc1ccccc1)NC(=O)[C@H](CC(N)=O)NC(=O)[C@@H]1CCCN1C(=O)[C@H](CO)NC(=O)[C@H](CO)NC(=O)[C@H](Cc1c[nH]cn1)NC(=O)[C@H](CCCNC(=N)N)NC(=O)[C@H](CC(C)C)NC(=O)[C@H](Cc1ccccc1)NC(=O)[C@H](CC(N)=O)NC(=O)[C@H](C)NC(=O)[C@H](CC(C)C)NC(=O)[C@H](CCCNC(=N)N)NC(=O)[C@H](CCC(N)=O)NC(=O)[C@@H](NC(=O)[C@H](C)NC(=O)[C@@H]1CSSC[C@H](NC(=O)[C@@H](N)CCCCNC(=O)COCCOCCNC(=O)COCCOCCNC(=O)CC[C@H](NC(=O)CCCCCCCCCCCCCCCCCCC(=O)O)C(=O)O)C(=O)N[C@@H](CC(N)=O)C(=O)N[C@@H]([C@@H](C)O)C(=O)N[C@@H](C)C(=O)N[C@@H]([C@@H](C)O)C(=O)N1)[C@@H](C)O)C(=O)N1CCC[C@H]1C(=O)N[C@@H](CO)C(=O)N[C@@H](CO)C(=O)N[C@H](C(=O)N[C@@H](CC(N)=O)C(=O)N[C@H](C(=O)NCC(=O)N[C@@H](Cc1c[nH]cn1)C(=O)N[C@@H](CC(N)=O)C(=O)N[C@H](C(=O)N[C@@H](Cc1ccc(O)cc1)C(N)=O)[C@@H](C)O)C(C)C)[C@@H](C)O
notes: also called compound 97

IC50 [1]: 0.166 nM | IC50 [2]: 13.2 nM | Ratio hCT/hAmylin binding [3]: 79.6
B3: N^ε1-[2-[2-[2-[[2-[2-[2-[[(4S)-4-carboxy-4-(19-carboxynonadecanoylamino)butanoyl]amino]ethoxy]ethoxy]acetyl]amino]ethoxy]ethoxy]acetyl]-[Arg17,Pro21,Pro27,Pro31 … (peptide)
peptide: K([AEEA-AEEA-γGlu-C20 diacid])CNTATCATQRLANFLRHSSPNFGAIPSSTPVGSNTY-NH2
modifications: disulfide 2-7; N-terminus assumed
SMILES: CC[C@H](C)[C@H](NC(=O)[C@H](C)NC(=O)CNC(=O)[C@H](Cc1ccccc1)NC(=O)[C@H](CC(N)=O)NC(=O)[C@@H]1CCCN1C(=O)[C@H](CO)NC(=O)[C@H](CO)NC(=O)[C@H](Cc1c[nH]cn1)NC(=O)[C@H](CCCNC(=N)N)NC(=O)[C@H](CC(C)C)NC(=O)[C@H](Cc1ccccc1)NC(=O)[C@H](CC(N)=O)NC(=O)[C@H](C)NC(=O)[C@H](CC(C)C)NC(=O)[C@H](CCCNC(=N)N)NC(=O)[C@H](CCC(N)=O)NC(=O)[C@@H](NC(=O)[C@H](C)NC(=O)[C@@H]1CSSC[C@H](NC(=O)[C@@H](N)CCCCNC(=O)COCCOCCNC(=O)COCCOCCNC(=O)CC[C@H](NC(=O)CCCCCCCCCCCCCCCCCCC(=O)O)C(=O)O)C(=O)N[C@@H](CC(N)=O)C(=O)N[C@@H]([C@@H](C)O)C(=O)N[C@@H](C)C(=O)N[C@@H]([C@@H](C)O)C(=O)N1)[C@@H](C)O)C(=O)N1CCC[C@H]1C(=O)N[C@@H](CO)C(=O)N[C@@H](CO)C(=O)N[C@H](C(=O)N1CCC[C@H]1C(=O)N[C@H](C(=O)NCC(=O)N[C@@H](CO)C(=O)N[C@@H](CC(N)=O)C(=O)N[C@H](C(=O)N[C@@H](Cc1ccc(O)cc1)C(N)=O)[C@@H](C)O)C(C)C)[C@@H](C)O
notes: also called compound 96
